Data on eight molecules can be found in US20220017622A1 (Pfizer, published 2022).

Residue numbers refer to the chain shown, from its start.

Assay [1] deals with T1, human CD3 on primary human T cells (human, UniProt P07766 23-207; P04234 22-171).
T1 construct: whole, on cells; On cells the whole CD3/TCR complex is present
Put plainly: flow cytometry on primary human T cells, 37 C.

Assay [2] addresses T2, human B7-H4 on cells (human, UniProt Q7Z7D3 25-282).
T2 sequence (looked up): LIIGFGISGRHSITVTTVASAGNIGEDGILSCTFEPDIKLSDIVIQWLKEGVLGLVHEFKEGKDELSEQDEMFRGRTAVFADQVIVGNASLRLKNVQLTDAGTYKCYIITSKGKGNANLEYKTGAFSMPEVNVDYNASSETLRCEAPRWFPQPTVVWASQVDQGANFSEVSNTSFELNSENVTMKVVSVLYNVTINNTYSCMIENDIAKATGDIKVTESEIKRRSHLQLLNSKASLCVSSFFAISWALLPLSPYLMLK
The assay can be described thus: cell-based or functional assay.

The target in assay [3] is T2, human B7-H4 on cells. Put plainly: flow cytometry on MX-1 cells, 37 C.
Assay [4] deals with T3, human CD3 (delta/epsilon heterodimer) (human, UniProt P07766 23-126; P04234 22-105).
T3 construct: captured on an anti-His chip, so it carries a His tag; also called huCD3
T3 sequence (P07766 23-126, stated change not applied, chain 1 of 2): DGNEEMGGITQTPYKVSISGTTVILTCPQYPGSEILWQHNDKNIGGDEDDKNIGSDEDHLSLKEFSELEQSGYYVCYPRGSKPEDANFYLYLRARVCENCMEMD
T3 sequence (P04234 22-105, stated change not applied, chain 2 of 2): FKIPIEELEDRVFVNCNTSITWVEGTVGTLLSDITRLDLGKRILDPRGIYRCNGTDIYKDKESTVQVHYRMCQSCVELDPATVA
Put plainly: SPR 25 C; CD3 delta/epsilon on anti-His chip, bispecific analyte.

Assay [5] has as its target T4, cyno CD3 (delta/epsilon heterodimer) (cyno, UniProt Q95LI5 22-117; Q95LI8 22-105).
T4 construct: also called cyCD3
The description is as above.

Assay [6] has as its target T3, human CD3 (delta/epsilon heterodimer). Put plainly: SPR 37 C; CD3 delta/epsilon on anti-His chip, bispecific analyte.
In assay [7] the target is T4, cyno CD3 (delta/epsilon heterodimer). Described as above.

T1 sequence (P07766 23-207, chain 1 of 2): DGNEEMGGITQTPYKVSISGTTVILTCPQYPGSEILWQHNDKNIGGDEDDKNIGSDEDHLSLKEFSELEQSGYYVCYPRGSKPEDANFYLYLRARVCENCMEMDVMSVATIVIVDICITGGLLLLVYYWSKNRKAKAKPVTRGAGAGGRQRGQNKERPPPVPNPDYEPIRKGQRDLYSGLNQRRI
T1 sequence (P04234 22-171, chain 2 of 2): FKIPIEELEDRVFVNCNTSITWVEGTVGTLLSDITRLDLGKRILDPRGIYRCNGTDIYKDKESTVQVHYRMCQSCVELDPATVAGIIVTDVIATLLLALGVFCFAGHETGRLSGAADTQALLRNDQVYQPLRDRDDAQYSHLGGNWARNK
T4 sequence (Q95LI5 22-117, stated change not applied, chain 1 of 2): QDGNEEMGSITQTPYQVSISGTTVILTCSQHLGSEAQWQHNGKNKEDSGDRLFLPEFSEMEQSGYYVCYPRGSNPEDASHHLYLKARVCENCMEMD
T4 sequence (Q95LI8 22-105, stated change not applied, chain 2 of 2): as the sequence (P04234 22-105, stated change not applied, chain 2 of 2) above, with I5V, N15K, I20V, S32T, D33N, I34N, T64A, S74N, V83L counted along it

B1: B7-H4xCD3 bispecific antibody 1168 (bispecific antibody, IgG2)
heavy 1: EVQLLESGGGLVQPGGSLRLSCAASGFTFSSYAMSWVRQAPGKGLEWVSAISGGGGSTYYADSVKGRFTISRDNSKNTLYLQMNSLRAEDTAVYYCARDIQWYGESTLFDYWGQGTLVTVSSASTKGPSVFPLAPCSRSTSESTAALGCLVKDYFPEPVTVSWNSGALTSGVHTFPAVLQSSGLYSLSSVVTVPSSNFGTQTYTCNVDHKPSNTKVDKTVERKCEVECPECPAPPVAGPSVFLFPPKPKDTLMISRTPEVTCVVVAVSHEDPEVQFNWYVDGVEVHNAKTKPREEQFNSTFRVVSVLTVVHQDWLNGKEYKCKVSNKGLPSSIEKTISKTKGQPREPQVYTLPPSREEMTKNQVSLTCEVKGFYPSDIAVEWESNGQPENNYKTTPPMLDSDGSFFLYSKLTVDKSRWQQGNVFSCSVMHEALHNHYTQKSLSLSPG
light 1: DIQMTQSPSSLSASVGDRVTITCRASQSTRSWLAWYQQKPGKAPKLLIYKASSLESGVPSRFSGSGSGTDFTLTISSLQPEDFATYYCQQYGSYSRTFGQGTKVEIKRTVAAPSVFIFPPSDEQLKSGTASVVCLLNNFYPREAKVQWKVDNALQSGNSQESVTEQDSKDSTYSLSSTLTLSKADYEKHKVYACEVTHQGLSSPVTKSFNRGEC
heavy 2: EVQLVESGGGLVQPGGSLRLSCAASGFTFSDYYMTWVRQAPGKGLEWVAFIRNQARGYTSDHNPSVKGRFTISRDNAKNSLYLQMNSLRAEDTAVYYCARDRPSYYVLDYWGQGTTVTVSSASTKGPSVFPLAPCSRSTSESTAALGCLVKDYFPEPVTVSWNSGALTSGVHTFPAVLQSSGLYSLSSVVTVPSSNFGTQTYTCNVDHKPSNTKVDKTVERKCRVRCPRCPAPPVAGPSVFLFPPKPKDTLMISRTPEVTCVVVAVSHEDPEVQFNWYVDGVEVHNAKTKPREEQFNSTFRVVSVLTVVHQDWLNGKEYKCKVSNKGLPSSIEKTISKTKGQPREPQVYTLPPSREEMTKNQVSLTCLVKGFYPSDIAVEWESNGQPENNYKTTPPMLDSDGSFFLYSRLTVDKSRWQQGNVFSCSVMHEALHNHYTQKSLSLSPGK
light 2: DIQMTQSPSSLSASVGDRVTITCTSSQSLFNVRSQKNYLAWYQQKPGKAPKLLIYWASTRESGVPSRFSGSGSGTDFTLTISSLQPEDFATYYCKQSYDLFTFGGGTKVEIKRTVAAPSVFIFPPSDEQLKSGTASVVCLLNNFYPREAKVQWKVDNALQSGNSQESVTEQDSKDSTYSLSSTLTLSKADYEKHKVYACEVTHQGLSSPVTKSFNRGEC
notes: Chains 1-2: B7-H4 arm; chains 3-4: CD3 arm; IgG2
Molecule B1 showed an EC50 in assay [1] of 0.00556 µM. Besides, in the assay with human B7-H4 on cells [2], the “T cell mediated tumor cell killing EC50, HCC1954-Luc” value came to 2.17 µM; the “T cell mediated tumor cell killing, OVCAR3-Luc” value was determined as 360; the “T cell mediated tumor cell killing, T47D” value was 1910. Moreover, the concentration giving a half-maximal response (EC50) with human B7-H4 on cells [3] stood at 0.0131 µM.

B2: B7-H4xCD3 bispecific antibody 0068 (bispecific antibody, IgG2)
heavy 1: EVQLLESGGGLVQPGGSLRLSCAASGFTFSSYAMSWVRQAPGKGLEWVSAISGGGGSTYYADSVKGRFTISRDNSKNTLYLQMNSLRAEDTAVYYCARDIQWFGESTLFDYWGQGTLVTVSSASTKGPSVFPLAPCSRSTSESTAALGCLVKDYFPEPVTVSWNSGALTSGVHTFPAVLQSSGLYSLSSVVTVPSSNFGTQTYTCNVDHKPSNTKVDKTVERKCEVECPECPAPPVAGPSVFLFPPKPKDTLMISRTPEVTCVVVAVSHEDPEVQFNWYVDGVEVHNAKTKPREEQFNSTFRVVSVLTVVHQDWLNGKEYKCKVSNKGLPSSIEKTISKTKGQPREPQVYTLPPSREEMTKNQVSLTCEVKGFYPSDIAVEWESNGQPENNYKTTPPMLDSDGSFFLYSKLTVDKSRWQQGNVFSCSVMHEALHNHYTQKSLSLSPGK
light 1: B1 light 1 with M4L, S10T, T29I, Y36F, S56G, D70E, E81D, G92N
heavy 2: B1 heavy 2
light 2: B1 light 2
notes: Chains 1-2: B7-H4 arm; chains 3-4: CD3 arm; IgG2 EEE/RRR; also called anti-B7-H4 clone 37D4
For the molecule B2, in assay [4], the dissociation constant (Kd) stood at 0.0132 µM, the koff worked out at 0.00553 s⁻¹ and the kon was 420000 M⁻¹ s⁻¹. Further, in assay [5], the Kd amounted to 0.0135 µM, the koff was 0.00506 s⁻¹ and the kon turned out to be 374000 M⁻¹ s⁻¹. Further, in assay [6], the Kd is 0.063 µM, the koff is 0.0349 s⁻¹ and the on-rate (kon) was 554000 M⁻¹ s⁻¹. Besides, in assay [7], the Kd was determined as 0.0689 µM, the koff is 0.0349 s⁻¹ and the kon worked out at 506000 M⁻¹ s⁻¹. In the assay with human B7-H4 on cells [2], the “T cell mediated tumor cell killing EC50, HCC1954-Luc” value is 0.284 µM; the “T cell mediated tumor cell killing, MDA-MB-468” value turned out to be 332; the “T cell mediated tumor cell killing, OVCAR3-Luc” value turned out to be 79; the “T cell mediated tumor cell killing, T47D” value was determined as 566.

B3: B7-H4xCD3 bispecific antibody 0077 (bispecific antibody)
heavy 1: QVQLQQWGAGLLKPSETLSLTCALYGGSFSGYYWNWIRQPPGKGLEWIGEINHSGSANYNPSLKSRVTISVDTSKNQFSLRLSSVTAADTAVYYCARGLYNWNVDRWGQGTLVTVSSASTKGPSVFPLAPCSRSTSESTAALGCLVKDYFPEPVTVSWNSGALTSGVHTFPAVLQSSGLYSLSSVVTVPSSNFGTQTYTCNVDHKPSNTKVDKTVERKCEVECPECPAPPVAGPSVFLFPPKPKDTLMISRTPEVTCVVVAVSHEDPEVQFNWYVDGVEVHNAKTKPREEQFNSTFRVVSVLTVVHQDWLNGKEYKCKVSNKGLPSSIEKTISKTKGQPREPQVYTLPPSREEMTKNQVSLTCEVKGFYPSDIAVEWESNGQPENNYKTTPPMLDSDGSFFLYSKLTVDKSRWQQGNVFSCSVMHEALHNHYTQKSLSLSPGK
light 1: not shown
heavy 2: B1 heavy 2
light 2: B1 light 2
notes: also called anti-B7-H4 clone 19D3
With B3, in assay [4], the Kd is 0.0127 µM, the koff is 0.00536 s⁻¹ and the kon amounted to 423000 M⁻¹ s⁻¹. In assay [5], the Kd worked out at 0.0137 µM, the koff turned out to be 0.00504 s⁻¹ and the on-rate (kon) was 369000 M⁻¹ s⁻¹. For the same molecule, in the assay with human B7-H4 on cells [2], the “T cell mediated tumor cell killing EC50, HCC1954-Luc” value was 0.093 µM.

B4: B7-H4xCD3 bispecific antibody 1133 (bispecific antibody, IgG2)
heavy 1: EVQLVESGGGLVQPGGSLRLSCAVSGGSFSGYYWNWIRQPPGKGLEWIGEINHSGSATYNPSLKSRVTISVDTAKNSLYLQMNSLRAEDTAVYYCARGLYNWNVDHWGQGTLVTVSSASTKGPSVFPLAPCSRSTSESTAALGCLVKDYFPEPVTVSWNSGALTSGVHTFPAVLQSSGLYSLSSVVTVPSSNFGTQTYTCNVDHKPSNTKVDKTVERKCEVECPECPAPPVAGPSVFLFPPKPKDTLMISRTPEVTCVVVAVSHEDPEVQFNWYVDGVEVHNAKTKPREEQFNSTFRVVSVLTVVHQDWLNGKEYKCKVSNKGLPSSIEKTISKTKGQPREPQVYTLPPSREEMTKNQVSLTCEVKGFYPSDIAVEWESNGQPENNYKTTPPMLDSDGSFFLYSKLTVDKSRWQQGNVFSCSVMHEALHNHYTQKSLSLSPG
light 1: DIQMTQSPSSLSASVGDRVTITCRASQGIRNDLGWYQQKPGKAPKRLIYAASSLQSGVPSRFSGSGSGTDFTLTISSLQPEDFATYYCLQHNAYPRTFGGGTKVEIKRTVAAPSVFIFPPSDEQLKSGTASVVCLLNNFYPREAKVQWKVDNALQSGNSQESVTEQDSKDSTYSLSSTLTLSKADYEKHKVYACEVTHQGLSSPVTKSFNRGEC
heavy 2: B1 heavy 2
light 2: B1 light 2
notes: as for B1
On to B4, for which the midpoint of the response in assay [1], the EC50, lay at 0.00573 µM. Moreover, in the assay with human B7-H4 on cells [2], the “T cell mediated tumor cell killing EC50, HCC1954-Luc” value was 0.79 µM and the “T cell mediated tumor cell killing, T47D” value amounted to 2810. Further, in the assay with human B7-H4 on cells [3], the response was half-maximal at 0.00147 µM (EC50).

B5: B7-H4xCD3 bispecific antibody 1170 (bispecific antibody, IgG2)
heavy 1: B1 heavy 1
light 1: B1 light 1 with Y36L
heavy 2: B1 heavy 2
light 2: B1 light 2
notes: as for B1
Molecule B5 showed an EC50 in assay [1] of 0.00551 µM. In the assay with human B7-H4 on cells [2], the “T cell mediated tumor cell killing EC50, HCC1954-Luc” value was 0.595 µM; the “T cell mediated tumor cell killing, OVCAR3-Luc” value stood at 130; the “T cell mediated tumor cell killing, T47D” value amounted to 444. Besides, in the assay with human B7-H4 on cells [3], the response was half-maximal at 0.00688 µM (EC50).

B6: B7-H4xCD3 bispecific antibody 1169 (bispecific antibody, IgG2)
heavy 1: B1 heavy 1
light 1: B1 light 1 with Y36H
heavy 2: B1 heavy 2
light 2: B1 light 2
notes: as for B1
In assay [1], B6 registered an EC50 of 0.00522 µM. Also, in the assay with human B7-H4 on cells [2], the “T cell mediated tumor cell killing EC50, HCC1954-Luc” value amounted to 0.975 µM; the “T cell mediated tumor cell killing, OVCAR3-Luc” value stood at 190; the “T cell mediated tumor cell killing, T47D” value came out at 818. This molecule also yielded an EC50 in the assay with human B7-H4 on cells [3] of 0.01 µM.

B7: B7-H4xCD3 bispecific antibody 0999 (bispecific antibody, IgG2)
heavy 1: B1 heavy 1
light 1: B1 light 1 with M4L, S10T, T29I, Y36F, S56G, D70E, E81D, G92N
heavy 2: B1 heavy 2
light 2: B1 light 2
notes: as for B1
In assay [1], B7 displayed an EC50 of 0.00977 µM. Further, in the assay with human B7-H4 on cells [2], the “T cell mediated tumor cell killing EC50, HCC1954-Luc” value worked out at 0.277 µM; the “T cell mediated tumor cell killing, OVCAR3-Luc” value came to 90; the “T cell mediated tumor cell killing, T47D” value turned out to be 258. This molecule returned an EC50 in the assay with human B7-H4 on cells [3] of 0.0039 µM.

B8: B7-H4xCD3 bispecific antibody 1037 (bispecific antibody, IgG2)
heavy 1: B4 heavy 1 with I37V, P40A
light 1: B4 light 1 with N92S, A93S
heavy 2: B1 heavy 2
light 2: B1 light 2
notes: as for B1
As for B8, in assay [1], the 50% effective concentration (EC50) amounted to 0.00578 µM. In the assay with human B7-H4 on cells [2], the “T cell mediated tumor cell killing EC50, HCC1954-Luc” value was found to be 0.62 µM and the “T cell mediated tumor cell killing, T47D” value came to 1270. The molecule further registered a concentration for a half-maximal effect (EC50) in the assay with human B7-H4 on cells [3] of 0.00364 µM.

One may read the EC50 as the concentration at which the effect is half-maximal. By Kd is commonly meant a measure of binding affinity in units of concentration. A high value points to weaker binding. In general, koff refers to the rate constant with which the complex falls apart. Higher therefore signals a short-lived complex. By kon is commonly meant the rate constant with which the complex forms. High values mean fast association, low ones slow association.
